Reference: patent US7662388B2, “Endogenous peptide and active subfragments thereof” (Innoventus Project AB, priority 2003, dated 2010)

Tests used:
primary BCE cells [1] = assay: comparative study pep2/pep3, chemotaxis; assay type: cell-based, bovine; conditions: 50 ng/ml peptide, FGF-2 10 ng/ml, Zn2+-acetate
Method: Primary endothelial cells were starved over night in 0.5% normal calf serum. A migration assay was performed in a modified Boyden chamber as described earlier (Auerbach et al., 1991) using micropore polycarbonate filters (8 μm thick, 8 μm pore) coated with type-1 collagen solution at 100 μg/ml (Vitrogen 100, Collagen Corp). Cells were trypsinized and resuspended at 7.5×10^5 cells/ml in Dulbecco's modified essential medium (Invitrogen) containing 0.25% BSA and Trasylol at 1000 KIE. The cell suspension was added in the upper chamber and FGF-2 (10 ng/ml), HRGP (100 ng/ml), peptide 2 or 3 (50 ng/ml) in medium containing 0.25% BSA were added to the lower chamber. The peptides were dissolved in PBS containing a 10-fold molar excess (Zn:peptide) of Zn^2+-acetate. After 5 h at 37° C., cells that had migrated through the filter were stained with Giemsa and counted using the Easy Image Analysis software. All samples were analyzed in at least six wells for each treatment. Results of the study are illustrated in FIG. 7.

primary BCE cells [2] = assay: dose response study Pep2, chemotaxis of BCE cells; assay type: cell-based, bovine; conditions: 20, 50 or 100 ng/ml, FGF-2 10 ng/ml, Zn2+-acetate
Method: A migration assay was performed in a modified Boyden chamber as described earlier (Auerbach et al., 1991) using micropore polycarbonate filters (8 μm thick, 8 μm pore) coated with type-1 collagen solution at 100 μg/ml (Vitrogen 100, Collagen Corp). BCE Cells were trypsinised and resuspended at 7.5×10^5 cells/ml in Dulbecco's modified essential medium (Invitrogen) containing 0.25% BSA and Trasylol at 1000 KIE. The cell suspension was added in the upper chamber and FGF-2 (10 ng/ml), and/or peptide 2 (20, 50 or 100 ng/ml) in medium containing 0.25% BSA were added to the lower chamber. The peptides were dissolved in PBS containing a 10-fold molar excess (Zn:peptide) of Zn^2+-acetate. After 5 h at 37° C., cells that had migrated through the filter were stained with Giemsa and counted using an the Easy Image Analysis software. All samples were analysed in at least six wells for each treatment and at several separate occasions.

T241 fibrosarcoma cells [3] = assay: animal study Pep2, fibrosarcoma tumour growth; assay type: in vivo; conditions: 5 mg/kg/day s.c. daily, mice bearing fibrosarcoma
Method: Tumour study: Female, 5 week old, C57BL6/J mice (Mollegard/Bomhultgard, Denmark) were injected with 0.5×10^6 T241 fibrosarcoma cells subcutaneously (s.c.) into the left flank. Animals carrying palpable tumours were randomised (n=5-10 animals/treatment group) and received treatment with vehicle (Zn-acetate in NaCl), 5 mg/kg/day of HIS1 (=full-length HRGP) or Pep2, in a volume of 100 microliters, given as s.c. injections daily, in the right flank. The tumours were measured with a caliper once a day, in a blind procedure, and volumes were calculated by the formula […]×width^2×length. When the tumours reached the upper limit of 2 cm^3, the mice were sacrificed. The animals were anesthetised with isoflurane (Forene; Abbott) during all manipulations.

[4] = test system: chicken chorioallantoic membrane (CAM); assay: chicken chorioallantoic membrane (CAM) angiogenesis assay; assay type: in vivo; conditions: for growth factor-induced CAM angiogenesis (newly formed vessels): FGF-2 or VEGF-A 0.2 mg per filter, HRGP 3 mg per filter, three days
Method: The effect of HRGP on anglogenesis was tested in the chicken chorioallantoic membrane (CAM) assay.
The conditions for the chorioallantoic membrane (CAM) assay followed essentially a previously described procedure (Friedlander et al (1995), Dixelius et al, (2000)). FGF-2 (Boehringer Mannheim) and VEGF-A (Peprotech) was used at 0.2 mg per filter and purified pHRGP or rHRGP at 3 mg per filter. The treated CAM's were inspected in a light microscope and the score, from 0 (low) to 3 (high) was based on the number of vessel branch points. Average values for 5-6 embryos were recorded.
A filter disc soaked in vehicle or growth factor, with or without HRGP, was placed on top of the CAM in the vicinity of a large vessel and incubated for three days. Treatment of the CAM with growth factors, such as FGF-2, stimulated angiogenesis (FIG. 1C; Table 1).

T241 fibrosarcoma cells [5] = assay: fibrosarcoma tumour growth in mice (HRGP); assay type: in vivo; conditions: 4 mg/kg/day s.c. daily, control PBS, 11 days
Method: Animal work was carried out at the local animal facility and was approved by the Uppsala University board of animal experimentation and thus performed according to the UKCCCR guidelines for the welfare of animals in experimental neoplasia (Workman et al (1988)). The mice were anesthetized with isoflurane (Forene; Abbott) during all manipulations. Female, 5 week old, C57BL6/1 mice (Mollegard/Bomhultgard, Denmark) were injected with 0.5×10^6 T241 fibrosarcoma cells subcutaneously (s.c.) into the left flank. Animals carrying palpable tumours were randomized (n=7-10 animals/treatment group) and received treatment with vehicle (PBS), 4 mg/kg/day of pHRGP or 5 mg/kg/day of human IgG or His-HRGP, given as daily subcutaneous injections in the right flank. The tumours were measured with a caliper once a day, in a blind procedure, and volumes were calculated by the formula […]. When the tumours reached the upper limit of 2 cm^3, the mice were sacrificed. Three animals in each group were perfused with 4% paraformaldehyde in PBS pH 7.4. Tumours were embedded in paraffin according to standard histological procedures and sectioned at […] thickness.
C57/bl6 mice were inoculated subcutaneously with T241 fibrosarcoma cells on their left flank and when the tumours were palpable (after 4-6 days), a daily treatment was initiated with HRGP or control (PBS; FIG. 2A, or human IgG; FIG. 2B). Endostatin was included in one study for comparison (FIG. 2B). The treatment was given as subcutaneous injections in the right flank until the size of the control tumours reached the upper limit of […] (11 days; FIG. 2A, 14 days; FIG. 2B). Injections with both pHRGP (4 mg/kg/day) and His-HRGP (5 mg/kg/day) led to a drastic reduction in tumour growth and at the time of sacrifice, the size of the tumours was reduced by 67% (FIG. 2A) and 61% (FIG. 2B) respectively, compared to control-treated animals. Endostatin treatment (25 mg/kg/day) lacked significant inhibitory effect on tumour growth in this model (32% decrease).

primary BCE cells [6] = assay: chemotaxis (migration) assay in modified Boyden chamber, BCE cells; assay type: cell-based, bovine
Method: (§1) The porcine aortic endothelial (PAE) cell line overexpressing FGF receptor-1 (FGFR-1) (Wennström et al 1992) was cultured in Ham's F12/10% fetal bovine serum (FCS) and NIH 3T3 murine fibroblasts were cultured in Dulbecco's modified medium (DMEM)/10% newborn calf serum (NCS). F12, DMEM and serum were bought from Life Technologies. Primary bovine adrenal cortex capillary endothelial (BCE) cells were cultured on gelatin-coated dishes in DMEM/10% NCS and 2 ng/ml FGF-2 (Boehringer Mannheim). For chemotaxis assays, both PAE and NIH 3T3 cells were serum-starved over night in 0.1% BSA and BCE cells in 0.5% NCS. Human embryonic kidney (HEK) 293-EBNA cells were cultured in DMEM/10% FCS. Approximately every second month they were given 0.25 mg/ml G418 (Calbiochem) to ensure positive selection of the EBNA-1 expressing cells.
A migration assay was performed in a modified Boyden chamber as described earlier (Auerbach et al., 1991) using micropore polycarbonate filters (8 μm thick, 8 μm pore) coated with type-1 collagen solution at 100 μg/ml (Vitrogen 100, Collagen Corp). BCE, PAE/FGFR-1 or NIH 3T3 cells were preincubated or not with HRGP (100 ng/ml) for 30 min, trypsinised and resuspended at a concentration of 7.5×10^5 cells/ml in Dulbecco's modified essential medium (Invitrogen) containing 0.25% BSA and Trasylol at 1000 KIE. FGF-2 and VEGF-A was used at 5 ng/ml, HRGP and the protein C inhibitor (PCI) at 100 ng/ml and BSA at 0.25%. After 5 h at 37° C., migrated cells were stained with Giemsa and counted using an image analysis software (Easy Image Analysis) from Tekno Optik AB, Sweden. All samples were analysed in at least six parallel wells for each treatment.

[7] = test system: NIH 3T3 murine fibroblasts; assay: chemotaxis assay in modified Boyden chamber, NIH 3T3 fibroblasts; assay type: cell-based; conditions: 100 ng/ml HRGP
Method: as §1
A migration assay was performed in a modified Boyden chamber as described earlier (Auerbach et al., 1991) using micropore polycarbonate filters (8 μm thick, 8 μm pore) coated with type-1 collagen solution at 100 μg/ml (Vitrogen 100, Collagen Corp). […] After 5 h at 37° C., migrated cells were stained with Giemsa and counted using an image analysis software (Easy Image Analysis) from Tekno Optik AB, Sweden. All samples were analysed in at least six parallel wells for each treatment.

Q: Which results are given for “Pep2: amino acid subfragment of 35 amino acids, amino acids 330-364 of mature human HRGP (DLHPHKHHSHEQHPHGHHPHAHHPHEHDTHRQHPH; listed as Homo sapiens)”?
A: FGF-2-induced chemotaxis of primary BCE cells (primary BCE cells [1]): inhibited; FGF-2-induced chemotaxis of primary BCE cells, dose response (primary BCE cells [2]): dose-dependently inhibited; tumour growth (tumour volume) (T241 fibrosarcoma cells [3]): inhibits tumor growth

Q: With “Pep3: 25 amino acid subfragment of the central region, amino acids 365-389 of mature human HRGP, described in WO02/064621 (GHHPHGHHPHGHHPHGHHPHGHHPH; listed as Homo sapiens) [reference compound]” as the molecule, how does the “FGF-2-induced chemotaxis of primary BCE cells” value (primary BCE cells [1]; listed as SEQ.ID.NO:4) read?
A: not to be active for inhibiting angiogenesis

B1: pHRGP: HRGP purified from human plasma (protein)
chain: VSPTDCSAVEPEAEKALDLINKRRRDGYLFQLLRIADAHLDRVENTTVYYLVLDVQESDCSVLSRKYWNDCEPPDSRRPSEIVIGQCKVIATRHSHESQDLRVIDFNCTTSSVSSALANTKDSPVLIDFFEDTERYRKQANKALEKYKEENDDFASFRVDRIERVARVRGGEGTGYFVDFSVRNCPRHHFPRHPNVFGFCRADLFYDVEALDLESPKNLVINCEVFDPQEHENINGVPPHLGHPFHWGGHERSSTTKPPFKPHGSRDHHHPHKPHEHGPPPPPDERDHSHGPPLPQGPPPLLPMSCSSCQHATFGTNGAQRHSHNNNSSDLHPHKHHSHEQHPHGHHPHAHHPHEHDTHRQHPHGHHPHGHHPHGHHPHGHHPHGHHPHCHDFQDYGPCDPPPHNQGHCCHGHGPPPGHLRRRGPGKGPRPFHCRQIGSVYRLPPLRKGEVLPLPEANFPSFPLPHHKHPLKPDNQPFPQSVSESCPGKFKSGFPQVSMFFTHTFPK
Q: What does the source list for B1?
A: growth factor-induced CAM angiogenesis (newly formed vessels) [4]: efficient suppression of newly formed vessels; effect on pre-established vessels of the CAM ([4]; FGF-2 or VEGF-A together with pHRGP, 3 mg per filter): remained unaffected; reduction of tumour size compared to control-treated animals at sacrifice (T241 fibrosarcoma cells [5]): 67%

B2: rHRGP: recombinant HRGP produced in HEK-293-EBNA cells without a His-tag (protein)
chain: VSPTDCSAVEPEAEKALDLINKRRRDGYLFQLLRIADAHLDRVENTTVYYLVLDVQESDCSVLSRKYWNDCEPPDSRRPSEIVIGQCKVIATRHSHESQDLRVIDFNCTTSSVSSALANTKDSPVLIDFFEDTERYRKQANKALEKYKEENDDFASFRVDRIERVARVRGGEGTGYFVDFSVRNCPRHHFPRHPNVFGFCRADLFYDVEALDLESPKNLVINCEVFDPQEHENINGVPPHLGHPFHWGGHERSSTTKPPFKPHGSRDHHHPHKPHEHGPPPPPDERDHSHGPPLPQGPPPLLPMSCSSCQHATFGTNGAQRHSHNNNSSDLHPHKHHSHEQHPHGHHPHAHHPHEHDTHRQHPHGHHPHGHHPHGHHPHGHHPHGHHPHCHDFQDYGPCDPPPHNQGHCCHGHGPPPGHLRRRGPGKGPRPFHCRQIGSVYRLPPLRKGEVLPLPEANFPSFPLPHHKHPLKPDNQPFPQSVSESCPGKFKSGFPQVSMFFTHTFPK
Q: For B2, which “growth factor-induced CAM angiogenesis (newly formed vessels)” value [4] is on record?
A: The same result was obtained

Q: And the “FCS-induced chemotaxis of BCE cells” value (primary BCE cells [6]; 100 ng/ml HRGP)?
A: not inhibited

Q: And the “VEGF-A-induced chemotaxis of BCE cells” value (primary BCE cells [6]; 100 ng/ml HRGP, VEGF-A 5 ng/ml)?
A: attenuated

Q: What about the “FGF-2-induced chemotaxis of BCE cells” value (primary BCE cells [6]; 100 ng/ml protein, FGF-2 5 ng/ml, 5 h) of the same molecule?
A: completely blocked

Q: What about the “FGF-2-induced chemotaxis of NIH 3T3 murine fibroblasts” value [7] of the same molecule?
A: not affected
